Reference: patent publication US20240261333A1 (published 2024)

Experiments:
Experiment in all cases: co-IP with anti-FLAG, mass spectrometry; lysate of cells with N-FLAG B3GNT2
RRP12 = biological target: T1, RRP12 (human, UniProt Q5JTH9-3 1-1236, limits assumed)
T1 construct: also called NP_001138586.1 (+4)
T1 sequence (looked up): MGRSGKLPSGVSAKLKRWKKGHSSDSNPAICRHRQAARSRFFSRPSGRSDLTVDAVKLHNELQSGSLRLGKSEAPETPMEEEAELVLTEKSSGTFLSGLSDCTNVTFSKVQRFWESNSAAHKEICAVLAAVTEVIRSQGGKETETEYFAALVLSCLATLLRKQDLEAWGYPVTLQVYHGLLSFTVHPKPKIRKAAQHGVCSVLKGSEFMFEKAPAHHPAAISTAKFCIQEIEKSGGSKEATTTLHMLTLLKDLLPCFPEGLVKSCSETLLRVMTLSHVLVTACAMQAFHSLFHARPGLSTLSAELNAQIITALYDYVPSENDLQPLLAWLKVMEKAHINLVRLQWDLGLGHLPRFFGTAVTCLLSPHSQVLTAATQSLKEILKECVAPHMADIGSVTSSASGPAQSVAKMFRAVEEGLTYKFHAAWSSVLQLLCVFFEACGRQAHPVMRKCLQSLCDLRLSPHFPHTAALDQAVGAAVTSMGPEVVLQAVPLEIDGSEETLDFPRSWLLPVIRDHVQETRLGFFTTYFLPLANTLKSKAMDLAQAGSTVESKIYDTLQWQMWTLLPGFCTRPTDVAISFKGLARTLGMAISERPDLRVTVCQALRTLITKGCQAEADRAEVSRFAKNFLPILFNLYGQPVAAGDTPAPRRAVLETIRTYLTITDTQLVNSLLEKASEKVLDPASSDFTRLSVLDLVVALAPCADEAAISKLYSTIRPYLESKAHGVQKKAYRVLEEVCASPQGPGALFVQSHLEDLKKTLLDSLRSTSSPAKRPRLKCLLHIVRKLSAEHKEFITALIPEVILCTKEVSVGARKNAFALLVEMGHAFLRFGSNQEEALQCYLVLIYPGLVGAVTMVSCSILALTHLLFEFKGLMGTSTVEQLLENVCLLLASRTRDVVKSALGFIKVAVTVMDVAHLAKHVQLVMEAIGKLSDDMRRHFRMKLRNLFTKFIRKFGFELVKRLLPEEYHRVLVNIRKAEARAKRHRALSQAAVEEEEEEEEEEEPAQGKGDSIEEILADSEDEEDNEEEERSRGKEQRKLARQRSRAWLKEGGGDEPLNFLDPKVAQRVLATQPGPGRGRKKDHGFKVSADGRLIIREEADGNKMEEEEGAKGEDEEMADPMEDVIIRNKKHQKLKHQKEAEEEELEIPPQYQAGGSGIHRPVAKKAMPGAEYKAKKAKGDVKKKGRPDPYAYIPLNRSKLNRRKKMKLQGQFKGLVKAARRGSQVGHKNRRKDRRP
Description: (§1) Cells were plated in 10-cm cell culture dishes and grown to 60-80% confluency. For each condition, two biological replicates were harvested for co-IP. Cells were washed with PBS and 4 mL of lysis buffer (20 mM HEPES, 1% Triton X-100, 150 mM NaCl, 1 mM EDTA, and 10% glycerol) containing protease inhibitor cocktail was added. Cells were scraped and lysate was incubated at 4° C. under rotary agitation for 1 h. Lysate was centrifuged at 14,000×g for 10 min at 4° C. Supernatant was transferred to a new tube and an aliquot was taken as the input. […] For Western blots, 10 μg/mL Chicken Anti-FLAG (Aves labs ET-DY100) and IgY control (R&D Systems AB-101-C) antibodies were biotinylated (Thermo Fisher Scientific 90407) and added to the respective conditions. Lysates with antibodies were incubated at 4° C. under rotary agitation overnight. For each mL of lysate, 50 μL of Pierce Protein A/G Magnetic Beads (Mass spectrometry; Thermo Fisher Scientific 88803) or Pierce Streptavidin Magnetic Beads (Western blot; Thermo Fisher Scientific 88817) was washed twice with lysis buffer. Lysates with antibodies were added to the beads and incubated at 4° C. under rotary agitation for 4 h. Beads were washed with lysis buffer 3 times and resuspended in lysis buffer for storage.
(§2) Magnetic beads were resuspended in 100 mM Tris pH 7.8, reduced, alkylated and digested with trypsin at 37° ° C. overnight. This solution was subjected to solid phase extraction to concentrate the peptides and remove unwanted reagents followed by injection onto a Shimadzu HPLC with fraction collector. Eight fractions were collected and after concentration were injected on a Waters NanoAcquity HPLC equipped with a self-packed Aeris 3 μm C18 analytical column 0.075 mm by 20 cm, (Phenomenex). Peptides were eluted using standard reverse-phase gradients. The effluent from the column was analyzed using a Thermo Orbitrap Elite mass spectrometer (nanospray configuration) operated in a data dependent manner for 54 minutes. The resulting fragmentation spectra were correlated against the known database using Proteome Discover 1.4 (Thermo Fisher Scientific).

CD70 = biological target: T2, CD70 (human, UniProt P32970 1-193)
T2 construct: also called NP_001243.1
T2 sequence (looked up): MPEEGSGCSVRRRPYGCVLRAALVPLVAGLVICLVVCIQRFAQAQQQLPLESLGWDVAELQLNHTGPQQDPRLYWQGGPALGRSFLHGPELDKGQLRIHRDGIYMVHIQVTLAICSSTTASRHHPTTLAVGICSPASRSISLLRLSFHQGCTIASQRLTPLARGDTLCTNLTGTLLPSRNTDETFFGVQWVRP
Description: as §1, §2

RARS = biological target: T3, RARS (human, UniProt P54136 1-660)
T3 construct: also called NP_002878.2
T3 sequence (looked up): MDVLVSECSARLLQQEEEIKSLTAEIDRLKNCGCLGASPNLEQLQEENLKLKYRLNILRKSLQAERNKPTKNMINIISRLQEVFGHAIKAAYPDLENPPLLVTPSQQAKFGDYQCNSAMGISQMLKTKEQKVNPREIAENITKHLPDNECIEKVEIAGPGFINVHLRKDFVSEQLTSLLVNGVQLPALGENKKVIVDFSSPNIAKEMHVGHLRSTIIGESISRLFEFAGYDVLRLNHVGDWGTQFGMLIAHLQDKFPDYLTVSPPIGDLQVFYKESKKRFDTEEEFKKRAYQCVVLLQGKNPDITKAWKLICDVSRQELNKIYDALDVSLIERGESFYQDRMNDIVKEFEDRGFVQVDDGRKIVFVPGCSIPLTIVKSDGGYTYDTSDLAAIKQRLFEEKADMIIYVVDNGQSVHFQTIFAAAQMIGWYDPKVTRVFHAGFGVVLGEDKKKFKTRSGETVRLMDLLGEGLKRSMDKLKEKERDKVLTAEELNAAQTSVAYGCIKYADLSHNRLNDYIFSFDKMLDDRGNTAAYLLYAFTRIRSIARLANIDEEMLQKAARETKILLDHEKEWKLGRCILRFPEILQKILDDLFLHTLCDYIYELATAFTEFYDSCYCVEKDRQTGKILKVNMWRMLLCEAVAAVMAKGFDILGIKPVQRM
Description: as §1, §2

Measured: co-IP mass spectrometry count

B1: N-terminal FLAG tagged B3GNT2 (enzyme, human, UniProt Q9NY97 1-397, looked up)
chain: MSVGRRRIKLLGILMMANVFIYFIMEVSKSSSQEKNGKGEVIIPKEKFWKISTPPEAYWNREQEKLNRQYNPILSMLTNQTGEAGRLSNISHLNYCEPDLRVTSVVTGFNNLPDRFKDFLLYLRCRNYSLLIDQPDKCAKKPFLLLAIKSLTPHFARRQAIRESWGQESNAGNQTVVRVFLLGQTPPEDNHPDLSDMLKFESEKHQDILMWNYRDTFFNLSLKEVLFLRWVSTSCPDTEFVFKGDDDVFVNTHHILNYLNSLSKTKAKDLFIGDVIHNAGPHRDKKLKYYIPEVVYSGLYPPYAGGGGFLYSGHLALRLYHITDQVHLYPIDDVYTGMCLQKLGLVPEKHKGFRTFDIEEKNKNNICSYVDLMLVHSRKPQEMIDIWSQLQSAHLKC
notes: Bait of the co-IP; pulled down with mouse anti-FLAG (Millipore Sigma F3165) from cell lysate; also called N-FLAG B3GNT2; N-term FLAG; not shown: N-terminal FLAG tag
0: all assays above
